Source: patent US20250109212A1 (BIOSION, published 2025)
Residue numbers refer to the chain shown, from its start.

Columns and labels:
[1] = target: human CD40-Fc protein (prepared in-house) (human); assay: competitive ELISA: human CD40-Fc coated, blocked ligand biotin-labeled human CD40L-his, OD(450-630)
Procedure: (§1) The ability of the recombinant fusion proteins of the disclosure to block CD40-CD40L binding was measured in a competitive ELISA assay. Briefly, 100 μl/well human CD40-Fc proteins (prepared in-house with amino acid sequence of SEQ ID NO: 22) were coated on 96-well micro plates at 2 μg/mL in coating buffer (carbonate/bicarbonate buffer) and incubated overnight at 4° C. The next day, the plates were washed once with wash buffer (PBS+0.05% v/v Tween-20, PBST), and then blocked with 5% w/v non-fatty milk in PBST for 2 hours at 37° C. The plates were then washed 4 times using the wash buffer.
Serially diluted recombinant fusion proteins of the disclosure or controls (starting at 10 µg/mL with a 5-fold serial dilution) in PBST with 2.5% w/v non-fatty milk were added to the CD40-Fc bound plates, 100 μl per well, and incubated at 37° C. for 40 minutes. The plates were washed 4 times using wash buffer, and then added and incubated for 40 minutes at 37° C. with 100 μl/well 95 ng/mL biotin-labeled human CD40L-his protein (Cat #: 10239-H08E, Sino biological). The plates were washed again using wash buffer, added with 100 μl/well streptavidin conjugated HRP (1:10000 dilution in PBST buffer, Cat #: 016-030-084, Jackson ImmunoResearch) and incubated for 40 minutes at 37° C. The plates were washed again using wash buffer. […] The absorbance was read on a microplate reader using the dual wavelength mode with 450 nm for TMB and 630 nm as the reference wavelength, then the OD (450-630) values were plotted against the recombinant fusion protein or controls concentration. Data was analyzed using Graphpad Prism and IC₅₀ values were reported.

[2] = target: T1, recombinant human CD40-his protein (Cat #: CD0-H5228, Acro biosystems) (human, UniProt P25942 21-193); assay: SPR (Biacore T200), sample on Protein A chip, antigen-his analyte, 1:1 fit
T1 construct: Bought protein
Source text: (§2) The purified recombinant fusion proteins were characterized for their binding affinity and binding kinetics by Biacore T200 system (GE healthcare, Pittsburgh, PA, USA). The anti-CD40 antibody HuCD40-C1H1-V2 (having the heavy chain and the light chain of SEQ ID NOs: 19 and 20), Selicrelumab (an agonistic anti-CD40 antibody, Roche Inc., prepared in-house with heavy and light chains of SEQ ID NOs: 27 and 28), and SIRPα-Fc fusion proteins, including SIRPαV2D1M1-Fc (IgG2) (SEQ ID NO: 21, X1=I, X2=R, X3=T, X4=K, X5=F), SIRPαV2D1M2-Fc (IgG2) (SEQ ID NO: 21, X1=I, X2=R, X3=T, X4=R, X5=V), SIRPα-isoform2-Fc (SEQ ID NO: 25) were used as positive controls.
(§3) A Protein A chip (Cat #: 29-1275-56, GE healthcare) was used for affinity determination. The recombinant fusion proteins of the disclosure and the positive controls each at the concentration of 2 μg/ml were respectively flowed onto the chip at a flow rate of 10 μl/min. Then, serially diluted recombinant human CD40-his proteins (Cat #: CD0-H5228, Acro biosystems), human CD47-his proteins (Cat #: CD7-H5227, Acro biosystems), cynomolgus CD40-his proteins (Biosion in house made, SEQ ID NO: 29) or cynomolgus CD47-his proteins (Cat #: CD7-C52H1, Acro biosystems), 2-fold dilution in HBS-EP⁺ buffer (provided by Biacore) with a starting concentration of 200 nM, were flowed onto the chip at a flow rate of 30 μl/min. The association kinetics was followed for 2 minutes and the dissociation kinetics was followed for 10 minutes. The association and dissociation curves were fit to a 1:1 Langmuir binding model using the Biacore evaluation software.

[3] = target: T2, full length human CD40 (uniprot #P25942-1) on 293T-CD40 cells (human, UniProt P25942 21-277); assay: FACS on 293T-CD40 cells, detection with goat anti-human IgG (Fab)-PE, MFI
T2 construct: whole, on cells
Procedure: Following an incubation of 40 minutes at 4° C. in dark, cells were washed three times and resuspended in FACS buffer. Fluorescence was measured using a Becton Dickinson FACS Canto II-HTS equipment and plotted against the recombinant fusion protein or controls concentration. Data was analyzed using Graphpad Prism and EC₅₀ values were reported.

[4] = target: T3, cynomolgus CD40-his protein (Biosion in house made) (cynomolgus, UniProt P25942 21-191 (human entry), limits assumed); assay: SPR (Biacore T200), sample on Protein A chip, antigen-his analyte, 1:1 fit
T3 construct: also called Cyno CD40-his
T3 chain: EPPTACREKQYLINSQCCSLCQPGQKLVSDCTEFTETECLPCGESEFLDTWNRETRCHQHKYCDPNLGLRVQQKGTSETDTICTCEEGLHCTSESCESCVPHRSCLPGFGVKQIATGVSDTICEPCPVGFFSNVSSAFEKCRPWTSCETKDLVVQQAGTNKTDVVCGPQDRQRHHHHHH
Source text: as §2, §3

[5] = target: T4, biotin-labeled human CD47-Fc (Biosion in house made) (human, biotin-labeled (sites not given)); assay: competitive ELISA: binder premixed with biotin-labeled human CD47-Fc, blocked partner coated human CD172a-Fc, OD(450-630)
T4 construct: also called Human CD47-Fc protein
Procedure: as §1, with “CD47-CD172a” for “CD40-CD40L”, “CD172a-Fc” for “CD40-Fc”, “24)” for “22)”, “using” for “using the”
Serially diluted recombinant fusion proteins of the disclosure or controls (starting at 100 nM with a 5-fold serial dilution) were mixed with 20 ng/ml biotin-labeled human CD47-Fc (Biosion in house made, SEQ ID NO: 23) in PBST with 2.5% w/v non-fatty milk. The mixtures were incubated at 37° C. for 40 minutes, and respectively added to the CD172a-Fc bound plates, 100 μl per well. The plates were incubated at 37° C. for 40 minutes, washed 4 times using wash buffer, added with 100 μl/well streptavidin conjugated HRP (1:10000 dilution in PBST buffer, Cat #: 016-030-084, Jackson ImmunoResearch), incubated for 40 minutes at 37° C., and washed again using wash buffer. […] The plates were read on a microplate reader using the dual wavelength mode with 450 nm for TMB and 630 nm as the reference wavelength, and the OD (450-630) values were plotted against the recombinant fusion protein or controls concentration. Data was analyzed using Graphpad Prism and IC₅₀ values were reported. Wild-type SIRPαV2D1-Fc (IgG2) (SEQ ID NO: 21, X1=V, X2=K, X3=S, X4=K, X5=F) was used as a positive control.

[6] = target: T5, human CD47-his protein (Cat #: CD7-H5227, Acro biosystems) (human, UniProt Q08722 19-139); assay: SPR (Biacore T200), sample on Protein A chip, antigen-his analyte, 1:1 fit
T5 construct: Bought protein
Source text: as §2, §3

[7] = target: T6, cynomolgus CD47-his protein (Cat #: CD7-C52H1, Acro biosystems) (cynomolgus, UniProt A0A2K5X523 19-139); assay: as above
T6 construct: Bought protein; also called Cyno CD47-his
Source text: as §2, §3

B1: BSI038×S-001 (bispecific antibody, human IgG2, kappa)
heavy: not shown
light: EIVLTQSPATLSLSPGERATLSCRASQTINNNLHWYQQKPGQAPRLLIKYASQSISGIPARFSGSGSGTDFTLTISSLEPEDFAVYFCQQFSSWPLTFGGGTKVEIKRTVAAPSVFIFPPSDEQLKSGTASVVCLLNNFYPREAKVQWKVDNALQSGNSQESVTEQDSKDSTYSLSSTLTLSKADYEKHKVYACEVTHQGLSSPVTKSFNRGEC
notes: Wild-type SIRPαV2D1 linked to C-terminus of each heavy chain of HuCD40-C1H1-V2 (human IgG2)
[1]
  IC50: ~2.21 nM
[2]
  Kd: 0.771 nM
  koff: 0.00188 s⁻¹
  kon: 2.44e+06 M⁻¹ s⁻¹
[3]
  EC50: 1.45 nM

B2: Selicrelumab (antibody, human IgG2, kappa, V domains shown)
VH: not shown
VL: DIQMTQSPSSVSASVGDRVTITCRASQGIYSWLAWYQQKPGKAPNLLIYTASTLQSGVPSRFSGSGSGTDFTLTISSLQPEDFATYYCQQANIFPLTFGGGTKVEIKR
notes: Agonistic anti-CD40 antibody, prepared in-house
[1]
  IC50: 3.33 nM
[4]
  Kd: 16.8 nM
  koff: 0.00219 s⁻¹
  kon: 131000 M⁻¹ s⁻¹
[2]
  Kd: 6.41 nM
  koff: 0.00231 s⁻¹
  kon: 360000 M⁻¹ s⁻¹
[3]
  EC50: 2.28 nM

B3: BSI038×S-003 (bispecific antibody, human IgG2, kappa)
heavy: EVQLVESGGGLVKPGGSLRLSCAASGFTFSNYGISWVRQAPGKGLEWVSSISSGGDNTYYPDNVKGRFTISRDNAKNSLYLQMNSLRAEDTAVYYCARAGEKAMDYWGQGTLVTVSSASTKGPSVFPLAPCSRSTSESTAALGCLVKDYFPEPVTVSWNSGALTSGVHTFPAVLQSSGLYSLSSVVTVPSSNFGTQTYTCNVDHKPSNTKVDKTVERKCCVECPPCPAPPVAGPSVFLFPPKPKDTLMISRTPEVTCVVVDVSHEDPEVQFNWYVDGVEVHNAKTKPREEQFNSTFRVVSVLTVVHQDWLNGKEYKCKVSNKGLPAPIEKTISKTKGQPREPQVYTLPPSREEMTKNQVSLTCLVKGFYPSDIAVEWESNGQPENNYKTTPPMLDSDGSFFLYSKLTVDKSRWQQGNVFSCSVMHEALHNHYTQKSLSLSPGK
light: not shown
notes: Wild-type SIRPαV2D1 linked to C-terminus of each light chain of HuCD40-C1H1-V2 (human IgG2)
[1]
  IC50: 2.93 nM
[2]
  Kd: 0.71 nM
  koff: 0.00183 s⁻¹
  kon: 2.57e+06 M⁻¹ s⁻¹
[3]
  EC50: 1.54 nM

B4: SIRPαV2D1M1-Fc (IgG2) (Fc fusion)
chain: EEELQVIQPDKSVSVAAGESAILHCTITSLIPVGPIQWFRGAGPARELIYNQREGHFPRVTTVSETTKRENMDFSISISNITPADAGTYYCVKFRKGSPDTEFKSGAGTELSVRAKPSAPVVSGPAARATPGGGGSGGGGSERKCCVECPPCPAPPVAGPSVFLFPPKPKDTLMISRTPEVTCVVVDVSHEDPEVQFNWYVDGVEVHNAKTKPREEQFNSTFRVVSVLTVVHQDWLNGKEYKCKVSNKGLPAPIEKTISKTKGQPREPQVYTLPPSREEMTKNQVSLTCLVKGFYPSDIAVEWESNGQPENNYKTTPPMLDSDGSFFLYSKLTVDKSRWQQGNVFSCSVMHEALHNHYTQKSLSLSPGK
notes: also called SIRPαV2M1-Fc(IgG2)
[5]
  IC50: 8.87 nM
[6]
  Kd: 0.952 nM
  koff: 0.000401 s⁻¹
  kon: 421000 M⁻¹ s⁻¹
[7]
  Kd: 4.88 nM
  koff: 0.000371 s⁻¹
  kon: 76000 M⁻¹ s⁻¹

B5: SIRPαV2D1M2-Fc (IgG2) (Fc fusion)
chain: B4 chain with K68R, F103V
notes: also called SIRPαV2M2-Fc(IgG2)
[5]
  IC50: 11.8 nM
[6]
  Kd: 1.07 nM
  koff: 0.000417 s⁻¹
  kon: 388000 M⁻¹ s⁻¹
[7]
  Kd: 7.01 nM
  koff: 0.000438 s⁻¹
  kon: 62400 M⁻¹ s⁻¹
